Assay [1] has as its target T1, dynein (endogenous, in SW480 cell extracts) (UniProt O14576 2-645).
T1 construct: Multi-subunit motor; also called Dynein intermediate 1
Kind of assay: co-immunoprecipitation in extracts of scratch-wounded SW480 cells.

Assay [2] has as its target T2, kinesin (endogenous, in SW480 cell extracts) (UniProt P33176 2-963).
T2 construct: also called heavy chain of kinesin-1
T2 sequence (looked up): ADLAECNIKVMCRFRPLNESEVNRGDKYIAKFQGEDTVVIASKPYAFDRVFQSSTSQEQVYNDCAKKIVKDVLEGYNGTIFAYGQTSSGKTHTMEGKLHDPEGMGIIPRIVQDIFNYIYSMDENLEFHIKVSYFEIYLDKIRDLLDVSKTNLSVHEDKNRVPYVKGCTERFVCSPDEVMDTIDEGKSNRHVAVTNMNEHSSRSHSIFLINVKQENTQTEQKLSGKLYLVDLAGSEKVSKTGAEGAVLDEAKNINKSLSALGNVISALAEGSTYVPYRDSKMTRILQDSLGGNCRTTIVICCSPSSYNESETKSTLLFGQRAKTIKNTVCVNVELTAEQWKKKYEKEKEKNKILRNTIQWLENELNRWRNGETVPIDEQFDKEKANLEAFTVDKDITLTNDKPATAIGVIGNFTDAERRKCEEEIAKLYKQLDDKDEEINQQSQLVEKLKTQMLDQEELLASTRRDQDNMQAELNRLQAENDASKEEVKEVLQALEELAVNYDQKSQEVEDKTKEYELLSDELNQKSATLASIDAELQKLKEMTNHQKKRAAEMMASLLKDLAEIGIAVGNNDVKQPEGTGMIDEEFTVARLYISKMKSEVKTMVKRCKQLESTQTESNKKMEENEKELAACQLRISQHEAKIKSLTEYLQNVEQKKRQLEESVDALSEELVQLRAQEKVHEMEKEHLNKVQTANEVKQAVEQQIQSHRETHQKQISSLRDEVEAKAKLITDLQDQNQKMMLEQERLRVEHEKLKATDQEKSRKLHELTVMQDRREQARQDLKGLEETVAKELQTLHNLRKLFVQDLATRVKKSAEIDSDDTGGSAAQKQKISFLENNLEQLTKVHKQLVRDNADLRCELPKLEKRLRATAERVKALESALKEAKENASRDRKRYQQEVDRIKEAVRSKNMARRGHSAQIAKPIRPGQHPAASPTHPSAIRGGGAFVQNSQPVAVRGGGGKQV
The assay is described as above.

T1 sequence (O14576 2-645): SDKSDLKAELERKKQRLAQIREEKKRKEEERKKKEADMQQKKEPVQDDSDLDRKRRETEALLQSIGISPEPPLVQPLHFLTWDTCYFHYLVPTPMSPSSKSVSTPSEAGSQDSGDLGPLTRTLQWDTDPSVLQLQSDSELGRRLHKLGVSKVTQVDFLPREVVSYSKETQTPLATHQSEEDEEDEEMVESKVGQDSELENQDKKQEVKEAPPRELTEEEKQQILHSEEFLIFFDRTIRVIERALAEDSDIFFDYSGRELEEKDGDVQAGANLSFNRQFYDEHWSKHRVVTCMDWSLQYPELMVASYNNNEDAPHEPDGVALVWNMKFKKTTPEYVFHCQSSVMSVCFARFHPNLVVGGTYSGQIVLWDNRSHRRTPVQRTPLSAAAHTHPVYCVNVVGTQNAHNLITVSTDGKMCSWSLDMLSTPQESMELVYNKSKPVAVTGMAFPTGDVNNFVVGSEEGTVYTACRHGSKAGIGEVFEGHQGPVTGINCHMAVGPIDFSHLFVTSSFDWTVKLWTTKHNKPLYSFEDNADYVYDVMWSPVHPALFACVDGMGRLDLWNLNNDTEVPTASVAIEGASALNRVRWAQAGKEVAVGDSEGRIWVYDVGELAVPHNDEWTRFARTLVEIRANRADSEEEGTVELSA

B1: p68 RNA helicase (endogenous, in SW480 cell extracts) (enzyme)
chain: MSGYSSDRDRGRDRGFGAPRFGGSRAGPLSGKKFGNPGEKLVKKKWNLDELPKFEKNFYQEHPDLARRTAQEVETYRRSKEITVRGHNCPKPVLNFYEANFPANVMDVIARQNFTEPTAIQAQGWPVALSGLDMVGVAQTGSGKTLSYLLPAIVHINHQPFLERGDGPICLVLAPTRELAQQVQQVAAEYCRACRLKSTCIYGGAPKGPQIRDLERGVEICIATPGRLIDFLECGKTNLRRTTYLVLDEADRMLDMGFEPQIRKIVDQIRPDRQTLMWSATWPKEVRQLAEDFLKDYIHINIGALELSANHNILQIVDVCHDVEKDEKLIRLMEEIMSEKENKTIVFVETKRRCDELTRKMRRDGWPAMGIHGDKSQQERDWVLNEFKHGKAPILIATDVASRGLDVEDVKFVINYDYPNSSEDYIHRIGRTARSTKTGTAYTFFTPNNIKQVSDLISVLREANQAINPKLLQLVEDRGSGRSRGRGGMKDDRRDRYSAGKRGGFNTFRDRENYDRGYSSLLKRDFGAKTQNGVYSAANYTNGSFGSNFVSAGIQTSFRTGNPTGTYQNGYDSTQQYGSNVPNMHNGMNQQAYAYPATAAAPMIGYPMPTGYSQ
notes: Endogenous protein in lysates of SW480 cells; also called Human p68
For the molecule B1, the binding result in assay [1] and in assay [2] was “no binding” in each case.

B2: HA-tagged wild-type p68 (HA-p68), immunopurified from SW480 cell lysates (enzyme)
chain: B1 chain
notes: One construct, purified from SW480 cells either with or without scratch-wound treatment; also called HA-p68 WT; WT; not shown: hemagglutinin (HA) tag from the pHM6 vector
With B2, the binding result in assay [1] and in assay [2] was “no binding” in each case.

These data come from patent US11214624 (PRODA BIOTECH, dated 2022).
